Source: patent US20090004198A1 (published 2009)

Target: T1, GST-HCMV-AD1 fusion protein (human cytomegalovirus (HCMV), UniProt P06473 552-635)
T1 construct: also called GST fused HCMV-AD1; not shown: GST (glutathione S-transferase) fusion partner
Experiment: BIAcore (SPR); antigen fixed to the sensor chip, antibody as analyte; GST protein as control

T1 sequence (P06473 552-635 limits assumed): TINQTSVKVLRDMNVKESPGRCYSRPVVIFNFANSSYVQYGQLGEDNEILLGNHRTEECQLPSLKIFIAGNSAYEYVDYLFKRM

B1: anti-HCMV antibody (G3D No. 9) (antibody, human IgG1, kappa, V domains shown)
VH: QVQLVESGGGMVQPGKSLRLSCAASGFTFSSYGMHWVRQAPGRGLEWVAIIWYDGDNTWYADSVKGRITISRDNSKNMLYLQMDSLRVEDTALYYCVRGGLGYFNGWDVDHWGQGTLVTVSS
VL: DVVMTQSPLSLPVTLGQPASISCRSSESLVYSDGNTYLNWFQQRPGQSPRRLISKVSNRDSGVPDRFSGSGSGTDFTLKISRVEAEDVGVYYCMQGSHWPPYTFGQGTKLEIKR
notes: also called G3D No. 9 antibody; anti-HCMV monoclonal antibody
**Q.** With B1 as the binder, how does the Kd read?
**A.** 0.0116 nM
